Experimental data taken from patent publication US20130064836A1 (Novartis, published 2013).

Key:
[1] = target: T1, human complement C5 protein (human, UniProt P01031 19-673; P01031 678-1676, Beta and alpha chains are joined by disulfide bonds. C5 was biotinylated in some assays.); test: cell-based or functional assay
[2] = target: T2, cynomolgus C5 (Macaca fascicularis) (cynomolgus (Macaca fascicularis), Beta and alpha chains are joined by disulfide bonds; the protein is a serum glycoprotein.); test: solution ELISA: Fab with biotinylated antigen on NeutrAvidin plate, His-tag detection [cynoC5 panel]
T2 construct: also called cyno C5; cynoC5
T2 beta: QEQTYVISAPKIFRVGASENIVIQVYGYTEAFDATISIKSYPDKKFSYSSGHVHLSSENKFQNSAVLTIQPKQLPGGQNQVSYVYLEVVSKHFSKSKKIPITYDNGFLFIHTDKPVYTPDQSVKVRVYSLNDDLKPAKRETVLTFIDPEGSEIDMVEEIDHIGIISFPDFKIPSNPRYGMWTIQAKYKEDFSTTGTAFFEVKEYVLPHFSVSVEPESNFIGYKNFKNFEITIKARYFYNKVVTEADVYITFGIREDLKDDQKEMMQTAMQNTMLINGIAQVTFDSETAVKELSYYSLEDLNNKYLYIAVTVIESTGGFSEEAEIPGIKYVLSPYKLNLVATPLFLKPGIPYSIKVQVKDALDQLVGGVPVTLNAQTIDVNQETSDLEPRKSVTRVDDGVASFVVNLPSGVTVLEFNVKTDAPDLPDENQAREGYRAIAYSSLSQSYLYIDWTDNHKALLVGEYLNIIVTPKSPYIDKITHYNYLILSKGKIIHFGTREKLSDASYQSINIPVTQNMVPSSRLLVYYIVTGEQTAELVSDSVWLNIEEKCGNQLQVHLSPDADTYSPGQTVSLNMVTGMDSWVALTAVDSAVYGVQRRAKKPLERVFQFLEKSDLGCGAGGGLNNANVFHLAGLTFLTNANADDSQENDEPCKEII
T2 alpha: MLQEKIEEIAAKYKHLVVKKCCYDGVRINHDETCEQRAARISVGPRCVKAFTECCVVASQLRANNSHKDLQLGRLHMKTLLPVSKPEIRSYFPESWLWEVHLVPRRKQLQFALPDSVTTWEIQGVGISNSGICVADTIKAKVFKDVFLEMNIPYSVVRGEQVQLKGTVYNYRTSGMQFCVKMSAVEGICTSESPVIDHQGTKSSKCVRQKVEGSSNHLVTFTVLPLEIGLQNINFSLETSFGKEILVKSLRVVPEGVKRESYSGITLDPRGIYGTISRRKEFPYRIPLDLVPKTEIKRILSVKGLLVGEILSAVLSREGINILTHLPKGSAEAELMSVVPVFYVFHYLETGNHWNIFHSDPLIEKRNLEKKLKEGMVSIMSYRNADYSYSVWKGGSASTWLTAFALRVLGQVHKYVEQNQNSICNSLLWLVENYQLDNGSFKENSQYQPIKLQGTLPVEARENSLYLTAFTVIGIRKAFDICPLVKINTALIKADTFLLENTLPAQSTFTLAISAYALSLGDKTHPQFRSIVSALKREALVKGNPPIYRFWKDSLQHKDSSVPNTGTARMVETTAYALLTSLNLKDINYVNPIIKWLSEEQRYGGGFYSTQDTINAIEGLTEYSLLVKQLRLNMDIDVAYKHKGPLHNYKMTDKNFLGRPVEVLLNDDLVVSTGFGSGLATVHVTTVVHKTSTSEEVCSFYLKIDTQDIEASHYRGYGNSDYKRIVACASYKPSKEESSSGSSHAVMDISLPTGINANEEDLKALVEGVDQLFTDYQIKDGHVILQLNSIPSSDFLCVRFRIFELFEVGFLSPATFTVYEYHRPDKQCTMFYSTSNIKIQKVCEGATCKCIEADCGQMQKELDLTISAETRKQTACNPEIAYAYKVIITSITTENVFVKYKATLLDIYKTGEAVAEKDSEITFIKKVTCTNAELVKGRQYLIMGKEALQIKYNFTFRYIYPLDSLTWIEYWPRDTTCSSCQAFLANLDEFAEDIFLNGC
Method: (§1) Fabs were incubated with biotinylated antigen on a Neutravidin plate and detected via the histidin tag.

[3] = target: T2, cynomolgus C5 (Macaca fascicularis); test: cell-based or functional assay
[4] = target: T1, human complement C5 protein; test: cell-based or functional assay; remark: listed apart in the source
[5] = target: T2, cynomolgus C5 (Macaca fascicularis); test: SET (MSD), purified Fab
Method: (§2) Streptavidin MSD plates were coated with 0.2 μg/ml biotinylated human C5 (30 μl/well) and blocked with 5% BSA in PBS. Subsequently the equilibrated samples were transferred to those plates (30 μl per well) and incubated for 20 min.

[6] = target: T1, human complement C5 protein; test: SET (MSD), purified Fab
Method: as §2

[7] = target: T1, human complement C5 protein; test: solution ELISA: Fab with biotinylated antigen on NeutrAvidin plate, His-tag detection [huC5 panel]
Method: as §1

human complement C3 = target: T3, human complement C3 (human, UniProt P01024 23-667; P01024 672-1663); test: solution ELISA: Fab with biotinylated antigen on NeutrAvidin plate, His-tag detection [huC3 panel]
T3 construct: Counter target in the ELISAs, coated directly or biotinylated; also called human C3
Method: as §1

T3 sequence (P01024 23-667 limits assumed, chain 1 of 2): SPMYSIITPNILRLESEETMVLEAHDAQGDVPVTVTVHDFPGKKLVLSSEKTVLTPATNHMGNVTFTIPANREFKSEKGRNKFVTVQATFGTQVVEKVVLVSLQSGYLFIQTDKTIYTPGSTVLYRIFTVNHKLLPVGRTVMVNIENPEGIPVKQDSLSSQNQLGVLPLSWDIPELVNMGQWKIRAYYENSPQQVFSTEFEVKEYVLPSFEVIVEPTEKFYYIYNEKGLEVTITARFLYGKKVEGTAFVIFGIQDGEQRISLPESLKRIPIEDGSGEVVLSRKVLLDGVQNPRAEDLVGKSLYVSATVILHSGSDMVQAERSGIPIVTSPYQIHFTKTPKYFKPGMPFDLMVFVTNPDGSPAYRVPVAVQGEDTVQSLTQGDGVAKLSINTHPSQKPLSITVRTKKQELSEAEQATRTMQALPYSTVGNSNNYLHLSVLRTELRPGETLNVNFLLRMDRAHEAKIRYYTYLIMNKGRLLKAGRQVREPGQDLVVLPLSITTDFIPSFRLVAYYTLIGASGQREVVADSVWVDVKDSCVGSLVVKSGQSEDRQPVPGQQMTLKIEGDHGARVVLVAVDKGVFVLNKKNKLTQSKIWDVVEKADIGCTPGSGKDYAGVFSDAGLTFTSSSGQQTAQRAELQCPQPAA
T3 sequence (P01024 672-1663 limits assumed, chain 2 of 2): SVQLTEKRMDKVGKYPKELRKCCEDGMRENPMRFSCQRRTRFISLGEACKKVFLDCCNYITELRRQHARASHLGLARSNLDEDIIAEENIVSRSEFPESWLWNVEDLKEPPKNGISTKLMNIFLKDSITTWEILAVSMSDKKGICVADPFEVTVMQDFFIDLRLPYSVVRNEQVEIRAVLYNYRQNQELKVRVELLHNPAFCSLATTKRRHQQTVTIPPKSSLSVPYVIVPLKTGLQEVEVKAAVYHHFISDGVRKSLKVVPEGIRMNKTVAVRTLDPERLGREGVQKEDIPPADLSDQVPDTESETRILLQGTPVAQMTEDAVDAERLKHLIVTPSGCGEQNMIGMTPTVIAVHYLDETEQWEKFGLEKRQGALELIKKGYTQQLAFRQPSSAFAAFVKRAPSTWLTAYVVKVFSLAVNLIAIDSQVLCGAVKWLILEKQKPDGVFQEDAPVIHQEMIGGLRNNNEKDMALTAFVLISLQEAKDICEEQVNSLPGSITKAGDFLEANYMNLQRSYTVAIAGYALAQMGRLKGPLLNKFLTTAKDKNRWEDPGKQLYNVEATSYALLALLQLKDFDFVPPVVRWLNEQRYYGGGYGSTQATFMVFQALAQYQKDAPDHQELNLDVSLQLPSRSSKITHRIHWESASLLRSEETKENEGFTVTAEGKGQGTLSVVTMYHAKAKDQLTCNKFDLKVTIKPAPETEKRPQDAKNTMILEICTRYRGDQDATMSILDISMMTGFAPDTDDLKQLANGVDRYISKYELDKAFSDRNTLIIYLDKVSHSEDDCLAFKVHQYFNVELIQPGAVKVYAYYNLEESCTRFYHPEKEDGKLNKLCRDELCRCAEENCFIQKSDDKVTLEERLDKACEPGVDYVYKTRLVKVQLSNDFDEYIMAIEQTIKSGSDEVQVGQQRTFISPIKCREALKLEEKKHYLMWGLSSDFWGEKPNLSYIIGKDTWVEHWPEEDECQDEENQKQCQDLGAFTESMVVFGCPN

B1: MOR07871 (Fab, V domains shown)
VH: QVQLVQSGAEVKKPGESLKISCKGSGYSFTSYYIGWVRQMPGKGLEWMGIIDPSDSHTTYSPSFQGQVTISADKSISTAYLQWSSLKASDTAMYYCARYMMRGFDHWGQGTLVTVSS
VL: DIELTQPPSVSVAPGQTARISCSGDSLGDYYAYWYQQKPGQAPVLVIYKDNNRPSGIPERFSGSNSGNTATLTISGTQAEDEADYYCQTWDTGESGVFGGGTKLTVLG
notes: light CS or A
For B1, the “IC50; hemolysis AP, 100 pM human C5 [panel f]” value [1] was 0.0545 nM, the EC50 [2] was 0.617 nM and the “IC50; hemolysis AP, 100 pM cyno C5 in 20% human C5-depleted serum [panel a]” value [3] was 0.111 nM. The “IC50; hemolysis AP, 100 pM cyno C5 in 20% human C5-depleted serum [panel f]” value [3] was 0.137 nM, the “IC50; hemolysis AP, 100 pM human C5 [panel j]” value [4] was 0.0366 nM and the Kd [5] was 0.004 nM. The Kd [6] was 0.003 nM, the EC50 [7] was 0.849 nM and the binding result (human complement C3) was “no binding (tested: 100 nM)”.
